B1: OSBP CC[G324C] (C224A/C276A/G324C) (domain or fragment, UniProt P22059 199-324, looked up)
chain: VSQTDKTELQNTLRTLSSKVEDLSTANDLIAKHGTALQRSLSELESLKLPAESNEKIKQVNERATLFRITSNAMINAARDFLMLAQTHSKKWQKSLQYERDQRIRLEETLEQLAKQHNHLERAFRC
modifications: AF-488, AF-568 or both dyes on the introduced cysteine C324 in the FRET experiments; unlabelled in gel filtration
notes: Cloned via BamH1/Xma1 into pGEX-4T2; source: E. coli Bl21gold, purified (Glutathione-Sepharose, thrombin, MonoS, Superose 12)
B2: OSBP Central Core (CC), wild type (domain or fragment, UniProt P22059 199-324, looked up)
chain: B1 chain with A26C, A78C, C126G
notes: The methods describe cloning (pGEX-4T2, GST tag, thrombin cleavage) and purification only for the cysteine mutants; also called OSBP CC; source: E. coli, purified
B3: VAP-A (natural protein, human, UniProt Q9P0L0 8-249, looked up)
chain: MAKHEQILVLDPPTDLKFKGPFTDVVTTNLKLRNPSDRKVCFKVKTTAPRRYCVRPNSGIIDPGSTVTVSVMLQPFDYDPNEKSKHKFMVQTIFAPPNTSDMEAVWKEAKPDELMDSKLRCVFEMPNENDKLNDMEPSKAVPLNASKQDGPMPKPHSVSLNDTETRKLMEECKRLQGEMMKLSEENRHLRDEGLRLRKVAHSDKPGSTSTASFRDNVTSPLPSLLVVIAAIFIGFFLGKFIL
notes: VAP-A, human, Q9P0L0, fragment 8-249 with its C-terminal transmembrane helix; The methods give the fragment 8-249 and the results say full-length; Both tags were removed with TEV protease before size exclusion chromatography; also called full-length VAP-A; human VAP-A; source: E. coli C41 (DE3), membranes solubilised in DDM, purified (Strep-Tactin, TEV, Superdex 200); reconstituted in egg …
B4: N-PH-FFAT (domain or fragment, UniProt P22059 1-408, looked up)
chain: MAATELRGVVGPGPAAIAALGGGGAGPPVVGGGGGRGDAGPGSGAASGTVVAAAAGGPGPGAGGVAAAGPAPAPPTGGSGGSGAGGSGSAREGWLFKWTNYIKGYQRRWFVLSNGLLSYYRSKAEMRHTCRGTINLATANITVEDSCNFIISNGGAQTYHLKASSEVERQRWVTALELAKAKAVKMLAESDESGDEESVSQTDKTELQNTLRTLSSKVEDLSTCNDLIAKHGTALQRSLSELESLKLPAESNEKIKQVNERATLFRITSNAMINACRDFLMLAQTHSKKWQKSLQYERDQRIRLEETLEQLAKQHNHLERAFRGATVLPANTPGNVGSGKDQCCSGKGDMSDEDDENEFFDAPEIITMPENLGHKRTGSNISGASSDISLDEQYKHQLEETKKEKRTR
notes: OSBP residues 1-408 (N-terminal region, PH domain, central core, FFAT motif), lacking the ORD; also called 1-408-OSBP; NH-FFAT

Substitutions are numbered along the chain they refer to. In names and notes the source's numbering stands.

One series has as its target OSBP FFAT (Homo sapiens) (UniProt P22059). The note with it: cited from earlier work.
Series [1] concerns the molecule itself. Kind of series: SEC; analytical gel filtration, Superdex 75, 100 ul of 10 uM protein, 25 mM Tris pH 7.5, 120 mM NaCl, 1 mM DTT; Stokes radius against MW of standards.
Series [2] deals with the molecule itself. Briefly: SDS-PAGE without heating; purified VAP-A in DDM, with reducing agents; bands at ~55 kDa and ~25 kDa, a single band when the samples were heated.
The target in the series “N-PH-FFAT” is B4. Kind of series: membrane tethering seen by cryo-EM and cryo-ET; N-PH-FFAT or OSBP bound to GalCer/PI4P tubes (70 lipids/protein mol/mol), VAP-A proteoliposomes added (2 min incubation, or sequentially on the grid for 30 s), HK buffer, room temperature. The note with it: both partners purified.
Series [3] deals with the molecule itself. Kind of series: cryo-EM structure; cryo-ET with sub-tomogram averaging of contact sites between VAP-A vesicles (LPR 70 mol/mol) and N-PH-FFAT on PI4P tubes; class with 20-25 nm membrane separation; VAP-A and N-PH-FFAT averaged separately.

This is an account of results in PMC8187361, “Nanoscale architecture of a VAP-A-OSBP tethering complex at membrane contact sites” (Nature Communications, 2021).

VAP-A MSP (from UniProt Q9P0L0): in the series with OSBP FFAT (Homo sapiens), the dissociation constant Kd was 2 µM.

On to B1, for which the binding result in series [1] was “binds”.

As for B2, the “stoichiometry N” value in series [1] stood at 2.

Consider B3, for which the “stoichiometry N” value in series [2] was found to be 2. Besides, in the series with N-PH-FFAT, the binding result is on record as “binds”.

Turning to B4, in series [3], the “stoichiometry N” value was 2.
